First the molecules themselves.
B1: FIXa-K228N/R338E/R403E (mature FIX numbering) (protein)
chain 1: YNSGKLEEFVQGNLERECMEEKCSFEEAREVFENTERTTEFWKQYVDGDQCESNPCLNGGSCKDDINSYECWCPFGFEGKNCELDVTCNIKNGRCEQFCKNSADNKVVCSCTEGYRLAENQKSCEPAVPFPCGRVSVSQTSKLTR
chain 2: VVGGEDAKPGQFPWQVVLNGKVDAFCGGSIVNEKWIVTAAHCVETGVNITVVAGEHNIEETEHTEQKRNVIRIIPHHNYNAAINKYNHDIALLELDEPLVLNSYVTPICIADKEYTNIFLKFGSGYVSGWGRVFHKGRSALVLQYLRVPLVDRATCLESTKFTIYNNMFCAGFHEGGRDSCQGDSGGPHVTEVEGTSFLTGIISWGEECAMKGKYGIYTKVSEYVNWIKEKTKLT
B2: FIXa-D104N/K106S/R318Y/R338E/E410N (mature FIX numbering) (protein)
chain 1: YNSGKLEEFVQGNLERECMEEKCSFEEAREVFENTERTTEFWKQYVDGDQCESNPCLNGGSCKDDINSYECWCPFGFEGKNCELDVTCNIKNGRCEQFCKNSANNSVVCSCTEGYRLAENQKSCEPAVPFPCGRVSVSQTSKLTR
chain 2: VVGGEDAKPGQFPWQVVLNGKVDAFCGGSIVNEKWIVTAAHCVETGVKITVVAGEHNIEETEHTEQKRNVIRIIPHHNYNAAINKYNHDIALLELDEPLVLNSYVTPICIADKEYTNIFLKFGSGYVSGWGRVFHKGYSALVLQYLRVPLVDRATCLESTKFTIYNNMFCAGFHEGGRDSCQGDSGGPHVTEVEGTSFLTGIISWGEECAMKGKYGIYTKVSRYVNWIKNKTKLT
B3: FIXa-A103N/N105S/Y155F/R318Y/R338E/R403E/E410N (mature FIX numbering) (protein)
chain 1: YNSGKLEEFVQGNLERECMEEKCSFEEAREVFENTERTTEFWKQYVDGDQCESNPCLNGGSCKDDINSYECWCPFGFEGKNCELDVTCNIKNGRCEQFCKNSNDSKVVCSCTEGYRLAENQKSCEPAVPFPCGRVSVSQTSKLTR
chain 2: VVGGEDAKPGQFPWQVVLNGKVDAFCGGSIVNEKWIVTAAHCVETGVKITVVAGEHNIEETEHTEQKRNVIRIIPHHNYNAAINKYNHDIALLELDEPLVLNSYVTPICIADKEYTNIFLKFGSGYVSGWGRVFHKGYSALVLQYLRVPLVDRATCLESTKFTIYNNMFCAGFHEGGRDSCQGDSGGPHVTEVEGTSFLTGIISWGEECAMKGKYGIYTKVSEYVNWIKNKTKLT
B4: FIXa-R318Y/R338E/E410N (mature FIX numbering) (protein)
chain 1: YNSGKLEEFVQGNLERECMEEKCSFEEAREVFENTERTTEFWKQYVDGDQCESNPCLNGGSCKDDINSYECWCPFGFEGKNCELDVTCNIKNGRCEQFCKNSADNKVVCSCTEGYRLAENQKSCEPAVPFPCGRVSVSQTSKLTR
chain 2: VVGGEDAKPGQFPWQVVLNGKVDAFCGGSIVNEKWIVTAAHCVETGVKITVVAGEHNIEETEHTEQKRNVIRIIPHHNYNAAINKYNHDIALLELDEPLVLNSYVTPICIADKEYTNIFLKFGSGYVSGWGRVFHKGYSALVLQYLRVPLVDRATCLESTKFTIYNNMFCAGFHEGGRDSCQGDSGGPHVTEVEGTSFLTGIISWGEECAMKGKYGIYTKVSRYVNWIKNKTKLT
B5: FIXa-K228N/R318Y/E410N (mature FIX numbering) (protein)
chain 1: YNSGKLEEFVQGNLERECMEEKCSFEEAREVFENTERTTEFWKQYVDGDQCESNPCLNGGSCKDDINSYECWCPFGFEGKNCELDVTCNIKNGRCEQFCKNSADNKVVCSCTEGYRLAENQKSCEPAVPFPCGRVSVSQTSKLTR
chain 2: VVGGEDAKPGQFPWQVVLNGKVDAFCGGSIVNEKWIVTAAHCVETGVNITVVAGEHNIEETEHTEQKRNVIRIIPHHNYNAAINKYNHDIALLELDEPLVLNSYVTPICIADKEYTNIFLKFGSGYVSGWGRVFHKGYSALVLQYLRVPLVDRATCLRSTKFTIYNNMFCAGFHEGGRDSCQGDSGGPHVTEVEGTSFLTGIISWGEECAMKGKYGIYTKVSRYVNWIKNKTKLT
B6: FIXa-A103N/N105S/R318Y/R338E/R403E/E410N (mature FIX numbering) (protein)
chain 1: YNSGKLEEFVQGNLERECMEEKCSFEEAREVFENTERTTEFWKQYVDGDQCESNPCLNGGSCKDDINSYECWCPFGFEGKNCELDVTCNIKNGRCEQFCKNSNDSKVVCSCTEGYRLAENQKSCEPAVPFPCGRVSVSQTSKLTR
chain 2: VVGGEDAKPGQFPWQVVLNGKVDAFCGGSIVNEKWIVTAAHCVETGVKITVVAGEHNIEETEHTEQKRNVIRIIPHHNYNAAINKYNHDIALLELDEPLVLNSYVTPICIADKEYTNIFLKFGSGYVSGWGRVFHKGYSALVLQYLRVPLVDRATCLESTKFTIYNNMFCAGFHEGGRDSCQGDSGGPHVTEVEGTSFLTGIISWGEECAMKGKYGIYTKVSEYVNWIKNKTKLT
B7: FIXa-R318Y/R403E/E410N (mature FIX numbering) (protein)
chain 1: YNSGKLEEFVQGNLERECMEEKCSFEEAREVFENTERTTEFWKQYVDGDQCESNPCLNGGSCKDDINSYECWCPFGFEGKNCELDVTCNIKNGRCEQFCKNSADNKVVCSCTEGYRLAENQKSCEPAVPFPCGRVSVSQTSKLTR
chain 2: VVGGEDAKPGQFPWQVVLNGKVDAFCGGSIVNEKWIVTAAHCVETGVKITVVAGEHNIEETEHTEQKRNVIRIIPHHNYNAAINKYNHDIALLELDEPLVLNSYVTPICIADKEYTNIFLKFGSGYVSGWGRVFHKGYSALVLQYLRVPLVDRATCLRSTKFTIYNNMFCAGFHEGGRDSCQGDSGGPHVTEVEGTSFLTGIISWGEECAMKGKYGIYTKVSEYVNWIKNKTKLT
B8: FIXa-Y155F/R318Y/R338E/R403E/E410N (mature FIX numbering) (protein)
chain 1: YNSGKLEEFVQGNLERECMEEKCSFEEAREVFENTERTTEFWKQYVDGDQCESNPCLNGGSCKDDINSYECWCPFGFEGKNCELDVTCNIKNGRCEQFCKNSADNKVVCSCTEGYRLAENQKSCEPAVPFPCGRVSVSQTSKLTR
chain 2: VVGGEDAKPGQFPWQVVLNGKVDAFCGGSIVNEKWIVTAAHCVETGVKITVVAGEHNIEETEHTEQKRNVIRIIPHHNYNAAINKYNHDIALLELDEPLVLNSYVTPICIADKEYTNIFLKFGSGYVSGWGRVFHKGYSALVLQYLRVPLVDRATCLESTKFTIYNNMFCAGFHEGGRDSCQGDSGGPHVTEVEGTSFLTGIISWGEECAMKGKYGIYTKVSEYVNWIKNKTKLT
B9: FIXa-D104N/K106S/Y155F/R318Y/R338E/R403E/E410N (mature FIX numbering) (protein)
chain 1: YNSGKLEEFVQGNLERECMEEKCSFEEAREVFENTERTTEFWKQYVDGDQCESNPCLNGGSCKDDINSYECWCPFGFEGKNCELDVTCNIKNGRCEQFCKNSANNSVVCSCTEGYRLAENQKSCEPAVPFPCGRVSVSQTSKLTR
chain 2: VVGGEDAKPGQFPWQVVLNGKVDAFCGGSIVNEKWIVTAAHCVETGVKITVVAGEHNIEETEHTEQKRNVIRIIPHHNYNAAINKYNHDIALLELDEPLVLNSYVTPICIADKEYTNIFLKFGSGYVSGWGRVFHKGYSALVLQYLRVPLVDRATCLESTKFTIYNNMFCAGFHEGGRDSCQGDSGGPHVTEVEGTSFLTGIISWGEECAMKGKYGIYTKVSEYVNWIKNKTKLT
B10: FIXa-D104N/K106S/R318Y/R338E/R403E/E410N (mature FIX numbering) (protein)
chain 1: YNSGKLEEFVQGNLERECMEEKCSFEEAREVFENTERTTEFWKQYVDGDQCESNPCLNGGSCKDDINSYECWCPFGFEGKNCELDVTCNIKNGRCEQFCKNSANNSVVCSCTEGYRLAENQKSCEPAVPFPCGRVSVSQTSKLTR
chain 2: VVGGEDAKPGQFPWQVVLNGKVDAFCGGSIVNEKWIVTAAHCVETGVKITVVAGEHNIEETEHTEQKRNVIRIIPHHNYNAAINKYNHDIALLELDEPLVLNSYVTPICIADKEYTNIFLKFGSGYVSGWGRVFHKGYSALVLQYLRVPLVDRATCLESTKFTIYNNMFCAGFHEGGRDSCQGDSGGPHVTEVEGTSFLTGIISWGEECAMKGKYGIYTKVSEYVNWIKNKTKLT
B11: FIXa-Y155F/R318Y/R338E/E410N (mature FIX numbering) (protein)
chain 1: YNSGKLEEFVQGNLERECMEEKCSFEEAREVFENTERTTEFWKQYVDGDQCESNPCLNGGSCKDDINSYECWCPFGFEGKNCELDVTCNIKNGRCEQFCKNSADNKVVCSCTEGYRLAENQKSCEPAVPFPCGRVSVSQTSKLTR
chain 2: VVGGEDAKPGQFPWQVVLNGKVDAFCGGSIVNEKWIVTAAHCVETGVKITVVAGEHNIEETEHTEQKRNVIRIIPHHNYNAAINKYNHDIALLELDEPLVLNSYVTPICIADKEYTNIFLKFGSGYVSGWGRVFHKGYSALVLQYLRVPLVDRATCLESTKFTIYNNMFCAGFHEGGRDSCQGDSGGPHVTEVEGTSFLTGIISWGEECAMKGKYGIYTKVSRYVNWIKNKTKLT
B12: FIXa-D203N/F205T/R318Y/E410N (mature FIX numbering) (protein)
chain 1: YNSGKLEEFVQGNLERECMEEKCSFEEAREVFENTERTTEFWKQYVDGDQCESNPCLNGGSCKDDINSYECWCPFGFEGKNCELDVTCNIKNGRCEQFCKNSADNKVVCSCTEGYRLAENQKSCEPAVPFPCGRVSVSQTSKLTR
chain 2: VVGGEDAKPGQFPWQVVLNGKVNATCGGSIVNEKWIVTAAHCVETGVKITVVAGEHNIEETEHTEQKRNVIRIIPHHNYNAAINKYNHDIALLELDEPLVLNSYVTPICIADKEYTNIFLKFGSGYVSGWGRVFHKGYSALVLQYLRVPLVDRATCLRSTKFTIYNNMFCAGFHEGGRDSCQGDSGGPHVTEVEGTSFLTGIISWGEECAMKGKYGIYTKVSRYVNWIKNKTKLT
B13: FIXa-R318Y/R338E/R403E/E410N (mature FIX numbering) (protein)
chain 1: YNSGKLEEFVQGNLERECMEEKCSFEEAREVFENTERTTEFWKQYVDGDQCESNPCLNGGSCKDDINSYECWCPFGFEGKNCELDVTCNIKNGRCEQFCKNSADNKVVCSCTEGYRLAENQKSCEPAVPFPCGRVSVSQTSKLTR
chain 2: VVGGEDAKPGQFPWQVVLNGKVDAFCGGSIVNEKWIVTAAHCVETGVKITVVAGEHNIEETEHTEQKRNVIRIIPHHNYNAAINKYNHDIALLELDEPLVLNSYVTPICIADKEYTNIFLKFGSGYVSGWGRVFHKGYSALVLQYLRVPLVDRATCLESTKFTIYNNMFCAGFHEGGRDSCQGDSGGPHVTEVEGTSFLTGIISWGEECAMKGKYGIYTKVSEYVNWIKNKTKLT

The source of these data is patent publication US20210238260.

This series deals with Factor X, P00742.
Factor X, P00742, sequence (P00742 whole entry, looked up): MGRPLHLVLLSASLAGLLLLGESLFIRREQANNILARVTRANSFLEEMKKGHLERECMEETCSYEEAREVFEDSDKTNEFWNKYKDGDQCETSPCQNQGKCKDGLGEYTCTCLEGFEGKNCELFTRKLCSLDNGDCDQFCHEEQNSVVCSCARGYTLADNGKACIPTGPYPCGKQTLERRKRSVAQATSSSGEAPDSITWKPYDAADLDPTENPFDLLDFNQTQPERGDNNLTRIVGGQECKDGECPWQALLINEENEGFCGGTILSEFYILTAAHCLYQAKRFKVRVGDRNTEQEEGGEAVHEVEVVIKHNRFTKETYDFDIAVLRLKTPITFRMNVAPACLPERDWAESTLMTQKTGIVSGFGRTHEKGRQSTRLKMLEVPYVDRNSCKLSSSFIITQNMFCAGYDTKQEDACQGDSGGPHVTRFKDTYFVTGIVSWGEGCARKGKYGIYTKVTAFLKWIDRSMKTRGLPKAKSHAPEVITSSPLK
The kcat/KM is the second-order rate constant that governs catalysis at low substrate concentration. In the case of B1, the “% of WT kcat/KM” value is 108% and the kcat/KM is 4.8e+07 M⁻¹ s⁻¹.

For B2, the “% of WT kcat/KM” value stood at 581% and the catalytic efficiency (kcat/KM) came out at 2.6e+08 M⁻¹ s⁻¹.

Consider B3, for which the “% of WT kcat/KM” value is 283% and the kcat/KM stood at 1.3e+08 M⁻¹ s⁻¹.

In the case of B4, the “% of WT kcat/KM” value is 770% and the kcat/KM came to 3.4e+08 M⁻¹ s⁻¹.

On to B5, for which the “% of WT kcat/KM” value turned out to be 272% and the kcat/KM came out at 1.2e+08 M⁻¹ s⁻¹.

In the case of B6, the “% of WT kcat/KM” value is recorded as 327% and the kcat/KM stood at 1.5e+08 M⁻¹ s⁻¹.

With B7, the “% of WT kcat/KM” value came to 59% and the kcat/KM stood at 2.7e+07 M⁻¹ s⁻¹.

Consider B8, for which the “% of WT kcat/KM” value is given as 418% and the kcat/KM came out at 1.9e+08 M⁻¹ s⁻¹.

On to B9, for which the “% of WT kcat/KM” value turned out to be 394% and the kcat/KM worked out at 1.8e+08 M⁻¹ s⁻¹.

Consider B10, for which the “% of WT kcat/KM” value turned out to be 377% and the specificity constant (kcat/KM) turned out to be 1.7e+08 M⁻¹ s⁻¹.

For the protein B11, the “% of WT kcat/KM” value amounted to 835% and the kcat/KM was determined as 3.7e+08 M⁻¹ s⁻¹.

With B12, the “% of WT kcat/KM” value worked out at 88% and the kcat/KM was 3.9e+07 M⁻¹ s⁻¹.

Consider B13, for which the “% of WT kcat/KM” value was 262% and the kcat/KM came out at 1.2e+08 M⁻¹ s⁻¹.
